From patent US20240336672A1 (INSTITUT PASTEUR, published 2024)
Positions count from the first letter of the chain named. Several values for one entry are separate records, joined by “and”; a condition that tells them apart may be missing. Equal entries are not always repeated.

B1: Cv2.3194 (recombinant human IgG1) (antibody, V domains shown)
VH: EVQLVESGGGLIQPGGSLRLSCAASGITVTSNYMSWVRQAPGKGLEWVSVIYPGGSTFYADSVKGRFTISRDNSKNTLYLQMNSLRAEDTAVYYCARDLVVYGMDVWGQGTTVTVSS
VL: EIVLTQSPGTLSLSPGERATLSCRASQSVSSSYLAWYQQKPGQAPRLLIYGASSRATGIPGRFSGSGSGTDFTLTISRLEPEDFAIYYCQQGVTFGGGTKVEIKR
B2: Cv2.3235 (recombinant human IgG1) (antibody, V domains shown)
VH: B1 VH with I27F, T30S, S31R, P53S, L99G, V100D, V101Y
VL: DIQMTQSPSFLSASVGDRVTITCRASQGISSFLAWYQQKPGKAPKLLIYGASTLQSGVTSRFSGSGSGTEFTLTISSLQPEDFATYYCQRLDSYPPITFGQGTRLEIKR
B3: Cv2.5213 (recombinant human IgG1) (antibody, V domains shown)
VH: B1 VH with I27F, T30S, V50L, P53S, F58Y, V100N, V101Y, T111A
VL: DIQMTQSPSSLSASVGDRVTITCRASQGISSYLAWYQQKPGKAPKLLIYAASTLQSGVPSRFSGSGSGTDFTLTISSLQPEDFATYYCQQLDSYSPFTFGPGTKVDIKR
B4: Cv2.1169 (recombinant human IgG1) (antibody)
heavy: QVQLVQSGPEVKKPGTSVKVSCKASGFTFTTSAVQWVRQARGQRLEWIGWIVVGSGNTNYAQKFQERVTITRDMSTTTAYMELSSLRSEDTAVYYCAAPYCSGGTCLDGFDIWGQGTMVTVSSASTKGPSVFPLAPSSKSTSGGTAALGCLVKDYFPEPVTVSWNSGALTSGVHTFPAVLQSSGLYSLSSVVTVPSSSLGTQTYICNVNHKPSNTKVDKKVEPKSCDKTHTCPPCPAPELLGGPSVFLFPPKPKDTLMISRTPEVTCVVVDVSHEDPEVKFNWYVDGVEVHNAKTKPREEQYNSTYRVVSVLTVLHQDWLNGKEYKCKVSNKALPAPIEKTISKAKQPREPQVYTLPPSRDELTKNQVSLTCLVKGFYPSDIAVEWESNGQPENNYKTTPPVLDSDGSFFLYSKLTVDKSRWQQGNVFSCSVMHEALHNHYTQKSLSLSPGK
light: not shown
notes: also called Cv2.1169 IgG
B5: Cv2.1353 (recombinant human IgG1) (antibody, V domains shown)
VH: EVQLVESGGGLVQPGGSLRLSCAASGVTVSSNYMNWVRQAPGKGLEWVSVIYSGGSTFYADSVKGRFIISRDNSKNTLYLQMNSLKTEDTAVYYCARDLGPMGFDIWGQGTMVTVSS
VL: B3 VL with S10F, D70E, D92N, Y94D, S95P, F97V

These binders were tested against T1, CoV-NL63 Spike ectodomain (NL63-CoV, UniProt Q6Q1S2 19-1291) (assay: ELISA, coated antigen; further: test concentration or dose not given here).
T1 sequence: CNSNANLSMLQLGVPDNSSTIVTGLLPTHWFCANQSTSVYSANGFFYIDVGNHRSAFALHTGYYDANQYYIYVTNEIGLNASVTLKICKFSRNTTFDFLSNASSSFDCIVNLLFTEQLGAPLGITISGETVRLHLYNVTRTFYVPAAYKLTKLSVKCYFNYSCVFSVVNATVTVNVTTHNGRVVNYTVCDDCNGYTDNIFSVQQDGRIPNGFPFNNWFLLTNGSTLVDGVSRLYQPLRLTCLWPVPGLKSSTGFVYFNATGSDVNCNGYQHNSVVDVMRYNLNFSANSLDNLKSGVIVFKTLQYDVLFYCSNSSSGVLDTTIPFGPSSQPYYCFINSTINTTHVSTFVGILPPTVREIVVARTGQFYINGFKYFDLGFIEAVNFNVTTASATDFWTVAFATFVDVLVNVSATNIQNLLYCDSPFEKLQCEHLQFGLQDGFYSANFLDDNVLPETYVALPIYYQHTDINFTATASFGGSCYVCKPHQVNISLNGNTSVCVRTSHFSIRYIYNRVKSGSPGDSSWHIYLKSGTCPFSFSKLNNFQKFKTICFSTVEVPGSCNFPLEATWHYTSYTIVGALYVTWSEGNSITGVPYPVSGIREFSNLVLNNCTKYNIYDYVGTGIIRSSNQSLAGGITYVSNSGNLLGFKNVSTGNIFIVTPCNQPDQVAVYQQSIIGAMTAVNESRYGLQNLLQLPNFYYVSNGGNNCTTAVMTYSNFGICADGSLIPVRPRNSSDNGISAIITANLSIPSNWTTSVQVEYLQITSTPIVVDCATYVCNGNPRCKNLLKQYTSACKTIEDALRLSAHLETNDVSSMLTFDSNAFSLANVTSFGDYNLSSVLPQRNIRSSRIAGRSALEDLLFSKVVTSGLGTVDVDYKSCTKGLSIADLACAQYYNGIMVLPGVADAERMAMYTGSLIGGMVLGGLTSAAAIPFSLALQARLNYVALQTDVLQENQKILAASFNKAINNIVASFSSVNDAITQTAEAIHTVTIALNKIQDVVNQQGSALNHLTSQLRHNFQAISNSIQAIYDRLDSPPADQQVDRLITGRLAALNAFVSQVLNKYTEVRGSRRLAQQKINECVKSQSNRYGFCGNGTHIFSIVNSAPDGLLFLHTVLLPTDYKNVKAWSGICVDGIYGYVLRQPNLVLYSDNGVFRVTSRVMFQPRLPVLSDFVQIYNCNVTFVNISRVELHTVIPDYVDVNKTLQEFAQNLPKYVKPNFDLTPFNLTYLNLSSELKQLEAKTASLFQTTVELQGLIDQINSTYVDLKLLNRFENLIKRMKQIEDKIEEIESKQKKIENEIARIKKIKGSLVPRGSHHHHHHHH
For B1, the “ELISA OD” value was 0.1 OD.
In the case of B2, the “ELISA OD” value is reported as 0.2 OD.
B3 was tested, and the “ELISA OD” value was 0.1 OD.
For B4, the “ELISA OD” value was 0.1 OD.
B5 was tested, and the “ELISA OD” value was 0.1 OD.

Biological target: T2, CoV-HKU1 Spike ectodomain (HKU1-CoV, UniProt Q0ZME7 14-1276)
T2 chain: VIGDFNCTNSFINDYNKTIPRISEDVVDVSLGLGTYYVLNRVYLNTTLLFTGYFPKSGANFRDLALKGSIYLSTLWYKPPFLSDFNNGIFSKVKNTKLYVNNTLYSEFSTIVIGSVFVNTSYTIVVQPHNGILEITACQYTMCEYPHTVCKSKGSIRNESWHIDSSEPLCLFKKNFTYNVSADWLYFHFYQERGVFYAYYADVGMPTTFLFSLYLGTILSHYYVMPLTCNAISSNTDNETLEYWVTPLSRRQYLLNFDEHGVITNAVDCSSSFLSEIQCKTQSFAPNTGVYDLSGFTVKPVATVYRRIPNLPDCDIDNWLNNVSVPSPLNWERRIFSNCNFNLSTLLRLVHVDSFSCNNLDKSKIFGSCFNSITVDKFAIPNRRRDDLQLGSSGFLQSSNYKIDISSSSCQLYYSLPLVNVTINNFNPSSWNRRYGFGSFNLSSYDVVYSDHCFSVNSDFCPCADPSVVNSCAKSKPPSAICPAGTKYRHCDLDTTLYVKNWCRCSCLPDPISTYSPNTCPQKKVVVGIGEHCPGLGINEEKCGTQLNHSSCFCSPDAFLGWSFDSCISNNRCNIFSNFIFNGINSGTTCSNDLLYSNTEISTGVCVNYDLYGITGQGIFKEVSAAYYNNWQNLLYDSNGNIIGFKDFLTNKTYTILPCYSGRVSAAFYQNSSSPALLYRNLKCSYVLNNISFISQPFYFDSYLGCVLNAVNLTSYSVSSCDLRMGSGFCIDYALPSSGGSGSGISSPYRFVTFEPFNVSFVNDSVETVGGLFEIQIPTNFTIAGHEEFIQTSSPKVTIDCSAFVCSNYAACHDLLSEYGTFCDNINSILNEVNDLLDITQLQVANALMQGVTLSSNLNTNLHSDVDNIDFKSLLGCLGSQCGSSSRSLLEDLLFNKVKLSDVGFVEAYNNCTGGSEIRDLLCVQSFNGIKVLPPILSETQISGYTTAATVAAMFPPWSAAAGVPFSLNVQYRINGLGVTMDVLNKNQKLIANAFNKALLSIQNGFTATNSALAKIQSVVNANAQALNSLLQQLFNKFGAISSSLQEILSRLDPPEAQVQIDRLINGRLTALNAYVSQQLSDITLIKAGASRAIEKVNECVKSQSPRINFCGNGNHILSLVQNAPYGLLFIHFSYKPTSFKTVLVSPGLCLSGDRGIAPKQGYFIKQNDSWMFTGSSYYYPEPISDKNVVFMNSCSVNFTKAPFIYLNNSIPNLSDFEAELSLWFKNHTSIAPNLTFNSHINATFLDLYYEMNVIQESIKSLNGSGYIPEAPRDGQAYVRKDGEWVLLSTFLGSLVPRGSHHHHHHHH
Test: ELISA, coated antigen; further: test concentration or dose not given here
In the case of B1, the “ELISA OD” value is reported as 0.1 OD.
With B2 the “ELISA OD” value was 0.2 OD.
In the case of B3, the “ELISA OD” value is reported as 0.1 OD.
For B4, the “ELISA OD” value was 0.1 OD.
In the case of B5, the “ELISA OD” value is reported as 0.1 OD.

Each binder was assayed against SARS-CoV-2 spike, Omicron BA.1 variant, on virus (SARS-CoV-2) (assay: cell-based or functional assay).
For B1, the “S-Fuse IC50” value was 0.0242 µg/mL.
B4 was tested, and the “S-Fuse IC50” value was 0.253 µg/mL and 0.212 µg/mL and the “neutralization IC50” value was about 0.25 µg/mL.
